In the nanobody polyreactivity screen of Harvey et al. (2022):

assay: yeast display, Sf9 membrane polyspecificity reagent, FACS + sequencing; frameworks hold sequencing errors
Summary of the method: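 Using colony PCR, genes from sorted yeast display clones were amplified, then sequenced on MiSeq at 2 × 250 and filtered by CDR length. The clones had been stained with 10% biotinylated, detergent-solubilized Sf9 membrane reagent for 1 hour at 4 °C and sorted by FACS into low and high (top ~1%) gates on anti-HA and streptavidin fluorescence. Polyreactivity labels come from the gate of origin.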

Sequence | polyreactivity (PSR sort gate)
QVQLVESGGGLVQAGGSLRLSCAASGSTFTYYAMGWYRQARGKERELVAAISSGGSTYYADSVKGRFTISRDNAKNTDYLQMNSLKPEDTAVYYCAARGYYGKFSGTGYWGQGTQVTVSS | high polyreactivity
QVQLVESGGGLVQAGGSLRLSCAASGSTFVAYTMGWYRQAPGKERELVAAITKRGSSTYYADSVKGRFTISRDNAKNTVYLHMNSLKPEDTAVYYCAAARSLKSYEGDYWGQGTQVTVSS | high polyreactivity
QVQLVESGGGLVQAGGSLRLSCAASGSTFVDNAMGWCRQAPGKERELVADISSGGSTYYADSVKGRFTISRDNAKNTVYLQMNSLKPEDTAVYYCAARGVYRRGKYNSWGQGTQVTVSS | high polyreactivity
QVQLVESGGGLVQAGGSLRLSCAASGSTFVDNAMGWYRQAPGKERELVAAITSSGGSTYYADSVKGRFTISRDNAQNTVYLQMNSLKPEDTAVYYCAADEWIVHDGYYSSYYYWGQGTQVTVSS | low polyreactivity
QVQLVESGGGLVQAGGSLRLSCAASGSTFVDNAMGWYRQAPGKERELVADISSGGSTYYADSVKGRFTISRDNAKNTVYLQMNSLKPEDTAVYYCAARRITSTDEYYWGQGTQVTVSS | high polyreactivity
QVQLVESGGGLVQAGGSLRLSCAASGSTFVDYAMGWYRQAPGKEREFVAAISFSGDSTYYADSVKGRFTISRDNAKNSVYLQLNSLKPEDTAVYYCAASRPYYNRQYYRSWRDDYWGQGTQVTVSS | low polyreactivity
QVQLVESGGGLVQAGGSLRLSCAASGSTFVFYTMGWYRPAPGKERELVAGISRNGGSTYYADSVKGRFTISRDNAKNTVYLQMNSLKTEDSAVYYCAALTWSRAYYSRKFYYWGQGTQVTVSS | high polyreactivity
QVQLVESGGGLVQAGGSLRLSCAASGSTFVGNAKGWYRQAPGKERELVAAITGGGGSTYYADSVKGRFTISRDNAKNTVYLQMNSLKPEDTAVYYCARDRTDYYVCYVRYYYWGQGTQVTVSS | low polyreactivity
QVQLVESGGGLVQAGGSLRLSCAASGSTFVGNAMGSYRQAPGKERELVATISNSGGRTYYADSVKGRFTISRDNAKNPVYLQRNSLKPEDTAVYYCPADHPAFGPGYSFDYWGQGTQVTVSS | low polyreactivity
QVQLVESGGGLVQAGGSLRLSCAASGSTFVGNSMGWYRKAPGKERELVAAISGSAGRTYYADSVKGRFTISRDNAKNTVYLQMNSLKPEDTAFYYCNKRYRGGVVYSRYDYWGQGTQVTVSS | low polyreactivity
QVQLVESGGGLVQAGGSLRLSCAASGSTFVGNVMGWYRQAPGKERELVATISRSGGRTYYADSVKGRFTISRDNAKNTVYLQMNSLKPEDTAVYYCAAGFVYTTASRWGGRTRYDYWGQGTQVTVSS | high polyreactivity
QVQLVESGGGLVQAGGSLRLSCAASGSTFVGYAMGWYRHAPGKERELVAAISSSGGRTNYADSVKGRFTISRDNAKNTVYLQMNSLKPEDTAVYYCAAKAYRSPVYYWGQGTQVTVSS | high polyreactivity
QVQLVESGGGLVQAGGSLRLSCAASGSTFVGYAMGWYRPAPGKDRELVADIDSIGGSTYYADSVKGRFTISRDNAKNTVYVQMNSPKPEDTAVYYCAKTWYPWSRSGYYRRYDSWGQGTQVTVSS | low polyreactivity
QVQLVESGGGLVQAGGSLRLSCAASGSTFVGYAMGWYRQAPGKERELVAAISGRGGSTYYADSVKGRFTISRDNAKNTVYLQMNSLKPEDTAVYYCNARRRKTVPNYIYNYWGQGTQVTVSS | high polyreactivity
QVQLVESGGGLVQAGGSLRLSCAASGSTFVGYAMGWYRQAPGKERELVAAISRSGGRTYYADSVKGRFTISRDNAKNTVYLQMNSLKPEDTAVYYCYPYYIASTFDYWGQGTQVTVSS | high polyreactivity
QVQLVESGGGLVQAGGSLRLSCAASGSTFVGYAMGWYRQAPGKERELVADIDSIGGSTYYADSVKGRFTISRDNAKNTVYLQMNSMKPEDTAVYYCAARRFDTALVLYDYWGQGSQVTVSS | low polyreactivity

Sequence | polyreactivity (PSR sort gate)
QVQLVESGGGLVQAGGSLRLSCAASGSTFVINAMGWYRQAPGKERELVAAISYDGGGTYYADSVKGRFTISRDNAKNTVYLQMNSLKPEDTAGYYCAAENFYPYTYYASDYWGQGTHVTVSS | high polyreactivity
QVQLVESGGGLVQAGGSLRLSCAASGSTFVIYAMGWYIQAPGKERELVAAINSGVSTYADSVKGRFTISRDNAKNTVYLQMNSLKPEDTAVYYCNAVSRPPYGPVFSAPAGGSWGQGTQVTVSS | low polyreactivity
QVQLVESGGGLVQAGGSLRLSCAASGSTFVIYAMGWYRQAPGKERELVASIRGRTGSTYYADSVKGRFTISRDNAKNTVYLQMNSLKPEDTAVYYCAATPGYKSKMDYWGQGTQVTVSS | high polyreactivity
QVQLVESGGGLVQAGGSLRLSCAASGSTFVIYGMGWYRQAPGKERELVADITWIGGSTYYADSVKGRFTISRDNAKNTVYLQMNSLKPEDTAVYYCAADAAYLYLYNWYDTEDDYWGQGTQVTVSS | low polyreactivity
QVQLVESGGGLVQAGGSLRLSCAASGSTFVIYTMGGSRQAPGKERELVAAISWSGGITRYADSVKGRFTISRDIAKNTVYLQMNSLKPEDTAVYYCNASQWPSRFDYWGQGTQVSVSS | low polyreactivity
QVQLVESGGGLVQAGGSLRLSCAASGSTFVKNDMGWYRQAPGKERELVAANSGGSTNYADSVTGRFTISRDNAKNTVYLQMNSLKPEDTAVYYCNAAVITKYAGRGGRPTGRMYYWGQGTQVTVSS | low polyreactivity
QVQLVESGGGLVQAGGSLRLSCAASGSTFVKYAMGWYRQAPGKERELVAAIDSSGGSTYYADSVKGRFTISRDNAKNTVYLQMNSLKAEDTAVYYCAAPRGNRLKGLEGYYWGQGTQVTVSS | high polyreactivity
QVQLVESGGGLVQAGGSLRLSCAASGSTFVKYAMGWYRQAPGKERELVAAISGYSGRTYYADSVKGRFTISRDNAKNTVYLQMNSLKPEDTAVYYCAAEWDDGRSWYWYYLVGFEYWGQGTQVTVSS | high polyreactivity
QVQLVESGGGLVQAGGSLRLSCAASGSTFVLYAMGWYRQAPGKERELVAAITKRGGNTYYADSVKGRFTISRDNAKNTVYLQMNSLKPEDTAVYYCAADHVRSPFDSWGQGTQVTVSS | low polyreactivity
QVQLVESGGGLVQAGGSLRLSCAASGSTFVPNAMGWYRQAPGKEREFVAAIRVSCDNTYYADSVKGRFTISRDNAKNTDYLQMNSLKPEDTAVYYCAATGTVLGSVDYWGQGSQVTVSS | low polyreactivity
QVQLVESGGGLVQAGGSLRLSCAASGSTFVPNAMGWYRQAPGKERELVAGISWSGGGTSYADSVKGRFTISRDNAKNTVYLQMNSLKPEDTAVYYCAVVGYEQNEYDYWGQGTQVTVSS | low polyreactivity
QVQLVESGGGLVQAGGSLRLSCAASGSTFVPYAMGWYRQAPGKERELVASITYSGGSTSYADSVKGRVTISRDTAKNTVYLQMNSLKPEDTAVNYCAAVPWVVYSGYDYWGQGTQVTVSS | low polyreactivity
QVQLVESGGGLVQAGGSLRLSCAASGSTFVPYTMGWYRQAPGKERELVAAISGSGGTDYADSVKGRFTISRDNAKNTVYLQMNSLKPEDTAVYYCATDGLDFWFIYDYWGQGTHVTVSS | low polyreactivity
QVQLVESGGGLVQAGGSLRLSCAASGSTFVQYAMGWYRQAPGKERELVAAISGSGGRTYYADSVKGRFTLSRDNAKNTVYSHMNSLKPEDTAVYYCAAAYNTDFYYWGQGTQVTVSS | high polyreactivity
QVQLVESGGGLVQAGGSLRLSCAASGSTFVRNAMGWYRQAPGKEREFVASISSTSGRTYYADSVKGRFTISRDNAKNTVYLQMNRLKPEDTAVYYCAADVPPKYRHRYTLYDYWGQGTQVTVSS | low polyreactivity
